Data taken from patent US20170189489A1, “CARDIAC MUSCLE FUNCTION AND MANIPULATION” (Zensun (Shanghai) Science & Technology, Co., Ltd., priority 1998, published 2017).
Entries after “also recorded” stand apart in the source; their conditions may differ.

Legend:
[1] = system: neonatal rat cardiac muscle cells; assay: Sarcomeric and cytoskeleton structures and MHC-α expression of cultured neonatal rat cardiac muscle cells; assay type: cell-based; details: for sarcomeric and cytoskeleton structures, cell-cell adhesions: single agent, Phalloidin and anti-α-actinin staining
Procedure: By using primary cultured myocardial cells as a model system, the present inventor evaluated neuregulin signalling in cardiac myocyte differentiation, maturation and assembly or maintenance of sarcomeric and cytoskeleton structures. To assay the neuregulin effect on cell signalling, embryonic cardiac muscle cells were incubated with recombinantly purified human neuregulin ligand (rhNRGβ2). […] Such an effect was not found from the cells stimulated with either insulin IGF-1 or PE. […] These findings indicate that NRG function through two distinct pathways: one activated at lower ligand concentrations results in cardiomyocyte growth, whereas the other, activated with higher concentrations, is mediated by sustained activation of the MAP kinase pathway and results in terminal differentiation and maturation.
(§1) Myocardial cells were plated in 2-well Novex plates (Nunc), and cultured with or without rhNRGβ2 in serum-free DMEM medium for 24-48 hour. After rinsing the cells with PBS, they were fixed with 4% paraformaldehyde and 0.1% Triton X-100 at room temperature for 30 minutes. The fixed cells were then blocked with 5% skim milk in PBS for 1 hr, followed by incubation with an anti-α-actinin monoclonal antibody (Sigma), for 45 minutes at room temperature. After washing, anti-mouse IgG conjugated with FITC (Sigma) was added and the cells were incubated for another half hour. For phalloidin staining, cells were fixed with 4% formadehyde for 1 hr, washed, and stained with phalloidin buffer (100 μl PBS, 10 μl rhodarmine phalloidin (6.6 μM in MeOH)) for 1 hr. After PBS washing, cells were mounted with 1% p-phenylenediamine (1 mg/ml, Sigma) in glycerol, and then covered and sealed. Cells were examined using a UV fluorescent microscope and photographed with a 40× power objective.

ventricular muscle cells = details: cited from earlier work; for hypertrophy score (maximal increase in cell size): scale 7 to 0, 3 = non-stimulated cells, 7 = fully hypertrophied
p42/p44 MAP kinases [2] = assay: p42/p44 MAP kinase phosphorylation in embryonic cardiomyocytes (immunoblot); assay type: cell-based, mouse
Procedure: (§2) Mouse embryos (E11.5-12.5) were used to prepare primary cardiac myocytes. Heart tissue was isolated aseptically from embryos. Myocardial cells were isolated by collagenase digestion and separated from non cardiomyocytes by preattachments on culture dishes that was performed three times. Cells were then cultured as described previously. Using this method, it was routinely possible to obtain primary cultures with >90% myocytes.
(§3) Embryonic myocardial cells were cultured in serum-free medium for at least 24 hrs and then stimulated with rhNRGβ2 or IGF-I for various times. Stimulation was terminated by washing cells rapidly with cold PBS. To block the MAP kinase activation, the MEK inhibitor, PD98059, was added to the medium 30 mins prior to the administration of rhNRGβ2 or IGF-I. Cells were then harvested as previously described for Western blot analysis with HRPO-conjugated monoclonal antibody RC20H (1:2,000) for detection of phosphorylated ErbB receptors, or a phospho-specific p42/p44 MAP kinase antibody (dilution ratio 1:1,000) for detection of phosphorylated MAP kinases. The same amount of cell extract protein was loaded into each lane and separated by SDS-PAGE. Immunobloting with an anti-ErbB receptor or anti-p42/44 MAP kinase antibodies was also used to normalise for protein loading. MAP-kinase (p42/p44) activity was measured using a p42/44 MAP kinase enzyme assay kit (RPN84; Amersham, Bucks, U.K.) according to the manufacturer's instructions.

[3] = system: embryonic mouse cardiomyocytes; assay: DNA synthesis ([3H] thymidine incorporation) in cultured embryonic mouse cardiomyocytes; assay type: cell-based; details: for effect on IGF-I (10^−9M)-stimulated DNA synthesis: 20 hrs
Procedure: as §2
Embryonic myocardial cells were cultured with rhNRGβ2 or IGF-I containing serum-free DMEM for 20 hrs. [methyl-^3H] Thymidine (0.5 μCi/well) was added and cells were then cultured for a further 12 hrs. After rinsing twice with cold PBS, once with ice-cold 10% trichloroacetic acid, and then five times with ice-cold PBS, the cells were dissolved in 100 μl of 1% SDS, and counted in a liquid scintillation counter.
All of the above assays were repeated at least three times for each experiments. Data for DNA synthesis and MAP kinase activity are presented as the mean±S.E of five replicate samples. Statistical significance was determined by ANOVA using the SAS statistical package with P<0.05 being considered significant. Immunoblots were quantitated by densitometry analysis with the intensity of the evaluated protein bands being shown below the blots as the fold changes over control (see FIGs).

p21^CIP1 = p21^CIP1 protein expression in embryonic cardiac muscle cells (immunoblot); assay type: cell-based, mouse
Procedure: as §2
Embryonic myocardial cells cultured in serum-free or 5% FBS medium were stimulated with various concentrations of rhNRGβ2 with or without the MEK inhibitor, PD98059, for 24 or 48 hrs, harvested as described above and subjected to immunoblot analysis using an anti-p21^CIP1 antibody (1:100). The same amount of protein was loaded into each well of a SDS polyacrylamide gel. After immunoblotting, the membrane was stripped and probed further with an antibody to the ErbB2 receptor for normalisation of protein loading.

[4] = system: E12.5 mouse cardiac muscle cells; assay: Sarcomeric and cytoskeletal structure of embryonic mouse cardiac muscle cells (phalloidin and anti-α-actinin staining); assay type: cell-based; details: for sarcomeric actin reorganisation and contractile unit assembly: 48 hrs, serum-free
Procedure: as §2, §1

[5] = system: MCF-7 breast cancer cell ErbB receptors; assay: Stimulation of MCF-7 breast cancer cell ErbB receptors (activity check of purified protein); assay type: cell-based; details: ligand 10^−12M to 10^−8M, MCF-7 cells
Excerpt: A cDNA encoding the EGF-like domain of human NRGβ2 isoform (rhNRGβ2, residues 177-237, was inserted into the pFLAG1 expression vector (IBI) (a gift from Dr. Rodney J. Fiddes, Co-operative Research Centre for Biopharmaceutical Research, Australia). rhNRGβ2 with a FLAG-peptide attached at its N-terminus, was expressed in the periplasmic space of E. coli DH5α, and purified by affinity chromatography using anti-FLAG M1 monoclonal antibody according to the manufacturer's instructions. The purity of rhNRGβ2 was more than 90% as evidenced by SDS-PAGE separation and Coomassie Blue staining of purified protein samples. The concentration of purified proteins was determined using a Bio-Rad protein assay kit. Activity of the purified proteins was assayed by stimulation of MCF-7 breast cancer cell ErbB receptors with various ligand doses.

p42/p44 MAP kinases [6] = assay: MAP kinase catalytic activity in extracts of treated cardiomyocytes (p42/44 MAP kinase enzyme assay kit); assay type: cell-based, mouse
Procedure: as §2
Embryonic myocardial cells were cultured in serum-free medium for at least 24 hrs and then stimulated with rhNRGβ2 or IGF-I for various times. Stimulation was terminated by washing cells rapidly with cold PBS. […] MAP-kinase (p42/p44) activity was measured using a p42/44 MAP kinase enzyme assay kit (RPN84; Amersham, Bucks, U.K.) according to the manufacturer's instructions.
All of the above assays were repeated at least three times for each experiments. […] Statistical significance was determined by ANOVA using the SAS statistical package with P<0.05 being considered significant. Immunoblots were quantitated by densitometry analysis with the intensity of the evaluated protein bands being shown below the blots as the fold changes over control (see FIGs).

[7] = target: T1, ErbB2 and ErbB4 receptors (Mus musculus, UniProt Q61527); assay: ErbB receptor phosphorylation in embryonic cardiomyocytes (Western blot / immunoprecipitation); assay type: cell-based
T1 construct: ErbB2 and ErbB4 are most abundantly expressed in cardiac myocytes; endogenous in cells; host or cells: primary embryonic (E11.5-12.5) mouse cardiac myocytes
Procedure: as §2
as §3, with “Immunobloting with an anti-ErbB receptor or anti-p42/44 MAP kinase antibodies was also used to normalise for protein loading.” left out

[8] = system: sarcomeric myosin heavy chains; assay: Sarcomeric myosin heavy chain and sarcomeric actin expression in embryonic mouse cardiac muscle cells (immunoblot); assay type: cell-based; details: rhNRGβ2-stimulated
Procedure: FIGS. 6A-6B. Effects of NRG on cardiac sarcomere assembly and myosin heavy chains expression. FIG. 6A. E12.5 mouse cardiac muscle cells were cultured in serum-free medium (control) or stimulated with 10^−10 or 10^−8M rhNRGβ2 (NRG) for 48 hrs. Cells were then stained with phalloidin (left panels) or evaluated for anti-α-actinin immunoflorescency (right panels). FIG. 6B. Sarcomeric myosin heavy chain α-actin expression rhNRGβ2-stimulated embryonic mouse cardiac muscle cells were evaluated by immunoblot analysis using an anti-sarcomeric myosin heavy chain antibody (MF20) or an anti-α-actinin antibody. The same amount of whole cell extracts (20 μg proteins) was loaded into each lane for SDS-PAGE fractionation.
as §2

T1 sequence (Q61527 26-1308): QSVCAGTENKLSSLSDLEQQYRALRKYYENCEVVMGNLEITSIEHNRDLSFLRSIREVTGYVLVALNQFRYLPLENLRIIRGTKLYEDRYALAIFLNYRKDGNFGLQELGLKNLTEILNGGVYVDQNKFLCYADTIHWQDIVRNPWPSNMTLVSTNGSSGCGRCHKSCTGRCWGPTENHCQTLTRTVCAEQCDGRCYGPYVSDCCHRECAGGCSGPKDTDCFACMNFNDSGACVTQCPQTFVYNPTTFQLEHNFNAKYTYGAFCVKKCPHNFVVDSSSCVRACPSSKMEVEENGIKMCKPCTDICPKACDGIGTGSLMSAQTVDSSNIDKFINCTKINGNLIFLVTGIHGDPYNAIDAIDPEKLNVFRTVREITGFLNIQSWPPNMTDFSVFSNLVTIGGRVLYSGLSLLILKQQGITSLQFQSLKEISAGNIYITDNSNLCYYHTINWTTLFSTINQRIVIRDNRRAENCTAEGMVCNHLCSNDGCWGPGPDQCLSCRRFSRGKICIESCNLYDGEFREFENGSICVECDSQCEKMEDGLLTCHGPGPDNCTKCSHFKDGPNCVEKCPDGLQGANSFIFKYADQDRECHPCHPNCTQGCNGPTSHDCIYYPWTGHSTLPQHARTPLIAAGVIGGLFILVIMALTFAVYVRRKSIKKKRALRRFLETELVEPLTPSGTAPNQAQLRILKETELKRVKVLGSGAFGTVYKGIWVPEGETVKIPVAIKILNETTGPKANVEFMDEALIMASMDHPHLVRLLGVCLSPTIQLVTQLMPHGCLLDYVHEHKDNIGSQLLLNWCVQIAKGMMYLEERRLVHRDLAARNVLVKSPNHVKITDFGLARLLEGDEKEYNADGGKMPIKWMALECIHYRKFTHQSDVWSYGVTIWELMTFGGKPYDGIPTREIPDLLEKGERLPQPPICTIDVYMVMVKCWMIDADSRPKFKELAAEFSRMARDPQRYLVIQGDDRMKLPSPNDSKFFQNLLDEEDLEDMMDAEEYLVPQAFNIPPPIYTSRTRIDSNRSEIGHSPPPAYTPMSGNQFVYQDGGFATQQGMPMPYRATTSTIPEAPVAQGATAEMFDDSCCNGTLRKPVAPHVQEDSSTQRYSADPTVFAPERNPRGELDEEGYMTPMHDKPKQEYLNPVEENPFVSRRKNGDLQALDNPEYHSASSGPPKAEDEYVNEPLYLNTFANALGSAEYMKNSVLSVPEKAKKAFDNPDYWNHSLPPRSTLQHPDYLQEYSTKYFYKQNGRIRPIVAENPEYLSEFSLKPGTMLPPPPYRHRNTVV
T1 sequence (P70424 23-1256 partner): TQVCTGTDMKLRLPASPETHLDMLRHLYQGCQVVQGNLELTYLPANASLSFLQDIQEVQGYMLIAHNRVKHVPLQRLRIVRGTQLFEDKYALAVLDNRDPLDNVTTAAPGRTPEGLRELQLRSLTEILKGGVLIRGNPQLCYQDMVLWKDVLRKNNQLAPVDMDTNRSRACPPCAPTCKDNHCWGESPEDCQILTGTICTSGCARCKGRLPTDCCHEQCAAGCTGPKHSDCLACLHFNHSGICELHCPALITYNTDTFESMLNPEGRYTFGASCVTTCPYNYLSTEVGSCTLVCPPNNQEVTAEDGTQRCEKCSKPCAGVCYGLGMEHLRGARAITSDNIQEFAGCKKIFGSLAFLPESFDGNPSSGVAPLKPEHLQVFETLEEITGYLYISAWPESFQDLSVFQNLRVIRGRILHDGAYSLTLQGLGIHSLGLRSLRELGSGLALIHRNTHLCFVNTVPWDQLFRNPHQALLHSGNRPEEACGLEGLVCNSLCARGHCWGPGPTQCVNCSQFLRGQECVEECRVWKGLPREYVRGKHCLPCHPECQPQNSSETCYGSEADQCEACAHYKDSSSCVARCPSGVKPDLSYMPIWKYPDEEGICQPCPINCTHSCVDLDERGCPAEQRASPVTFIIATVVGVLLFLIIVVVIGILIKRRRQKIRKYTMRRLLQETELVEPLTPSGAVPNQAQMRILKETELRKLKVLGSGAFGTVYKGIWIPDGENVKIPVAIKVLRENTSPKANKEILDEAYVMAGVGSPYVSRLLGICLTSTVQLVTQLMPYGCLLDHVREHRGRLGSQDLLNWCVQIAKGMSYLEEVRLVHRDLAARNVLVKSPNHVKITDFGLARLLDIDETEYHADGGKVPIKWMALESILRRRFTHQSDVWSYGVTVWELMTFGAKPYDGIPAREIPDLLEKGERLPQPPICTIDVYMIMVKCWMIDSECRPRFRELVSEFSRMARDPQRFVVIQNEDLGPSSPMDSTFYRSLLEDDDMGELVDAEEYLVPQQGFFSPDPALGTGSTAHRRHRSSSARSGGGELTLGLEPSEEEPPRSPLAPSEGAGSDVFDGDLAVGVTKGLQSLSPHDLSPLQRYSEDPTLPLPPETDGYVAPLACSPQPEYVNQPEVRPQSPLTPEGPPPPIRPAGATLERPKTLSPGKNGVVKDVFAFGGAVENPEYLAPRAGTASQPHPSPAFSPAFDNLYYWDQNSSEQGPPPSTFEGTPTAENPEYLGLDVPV

CNC[C@H](O)c1cccc(O)c1 [PE, phenylephrine]
sarcomeric and cytoskeleton structures, cell-cell adhesions [1]: not found
surface area/cell of fully hypertrophied cells (ventricular muscle cells; non-exposed cells 581 μm^2): 1811 μm^2
hypertrophy score (maximal increase in cell size) (ventricular muscle cells): 7

IGF-I: recombinant human insulin-like growth factor I, commercially obtained (Boehringer)
MAP kinase phosphorylation time course (p42/p44 MAP kinases [2]; IGF-I low (10^−9M) and high (10^−8M or 10^−7M) concentrations): transient
DNA synthesis response ([3]; concentrations ranging from 10^−11M to 10^−7M): only a proliferative response
sarcomeric and cytoskeleton structures, cell-cell adhesions [1]: not found
p21^CIP1 expression (p21^CIP1; IGF-I 10^−10M or 10^−8M): did not stimulate p21^CP1 expression

COc1cccc(-c2cc(=O)c3ccccc3o2)c1N [PD98059, reference compound]
sensitivity of rhNRGβ2 effects on cardiomyocytes to MEK1 inhibition ([4]; PD98059): sensitive to MEK1 inhibition
effect on NRG-induced increase in p42/44 MAP kinase phosphorylation (p42/p44 MAP kinases [2]; PD98059 added 30 mins before, cells stimulated 5 min): blocked
effect on p21^CIP1 expression induced by 10^−8M rhNRGβ2 (p21^CIP1; PD98059 50 μM, presence or absence of serum): blocked the increase in p21^CIP1 expression

CC[C@H](C)[C@H](NC(=O)[C@H](CC(=O)O)NC(=O)[C@H](CC(C)C)NC(=O)[C@H](Cc1c[nH]cn1)NC(=O)[C@@H]1CSSC[C@H](N)C(=O)N[C@@H](CO)C(=O)N[C@H]2CSSC[C@H](NC(=O)[C@H](CCC(=O)O)NC(=O)[C@H](CCCCN)NC(=O)[C@H](CC(=O)O)NC(=O)[C@H](CCSC)NC(=O)[C@H](CC(C)C)NC(=O)[C@H](CO)NC(=O)[C@H](CO)NC2=O)C(=O)N[C@@H](C(C)C)C(=O)N[C@@H](Cc2ccc(O)cc2)C(=O)N[C@@H](Cc2ccccc2)C(=O)N1)C(=O)N[C@H](C(=O)N[C@@H](Cc1c[nH]c2ccccc12)C(=O)O)[C@@H](C)CC [endothelin]
hypertrophy score (maximal increase in cell size) (ventricular muscle cells): ~5

B1: rhNRGβ2: EGF-like domain of human NRGβ2 isoform, residues 177-237 (SEQ ID NO: 2), FLAG-peptide at N-terminus, expressed in E. coli DH5α (protein, listed as Homo sapiens)
chain: {FLAG}-SHLVKCAEKEKTFCVNGGECFMVKDLSNPSRYLCKCPNEFTGDRCQNYVMASFYKAEELYQ
modifications: also: recombinant protein expressed in E. coli
ErbB receptor phosphorylation [5]: increased ErbB receptor phosphorylation with increasing ligand concentration
duration of MAP kinase catalytic activity (p42/p44 MAP kinases [6]; 10^−8M): at least 21 hours
MAP kinase catalytic activity time course (p42/p44 MAP kinases [6]; 10^−10M): only transient
sarcomeric actin reorganisation and contractile unit assembly ([4]; 10^−8M): stimulated both sarcomeric actin reorganisation (phalloidin staining) and cardiac contractile unit assembly
sarcomeric actin reorganisation and contractile unit assembly ([4]; 10^−10M): much less evident
phosphorylation of 180-185 kDa proteins corresponding to ErbB2/ErbB4 receptors ([7]; 10^−8M compared with 10^−10M, cell lysates): a higher level of phosphorylated 180-185 kDa proteins
phosphorylation of immunoprecipitated ErbB2 and ErbB4 ([7]; 5 min stimulation, 10^−10M or 10^−8M): dependent on rhNRβ2 concentrations
duration of p42/p44 MAP kinase phosphorylation (p42/p44 MAP kinases [2]; 10^−8M (higher dose)): at least 21 hours
MAP kinase activation (phosphorylation) time course (p42/p44 MAP kinases [2]; 10^−10M (lower ligand concentration), fell to basal level in less than three hours): only transient activation
MAP kinase phosphorylation time course (p42/p44 MAP kinases [2]; combination of IGF-I (10^−9M) and rhNRGβ2 (10^−8M)): sustained MAP kinase phosphorylation
effect on IGF-I (10^−9M)-stimulated DNA synthesis ([3]; 10^−8M NRG): significantly blocked the IGF-I response
effect on IGF-I (10^−9M)-stimulated DNA synthesis ([3]; 10^−10M NRG): little effect
DNA synthesis response versus control (vehicle) ([3]; all concentrations except 10^−7M, P<0.001, 20 hr): significantly greater than control
DNA synthesis ([3]; ligand concentrations >10^−10M): decreased
increase in DNA synthesis ([3]; rhNRGβ2 at 10^−10, 20 hr treatment, embryonic mouse cardiomyocytes (E11.5-12.5)): approximately 2 fold
improvement of sarcomeres and cell-cell adhesions ([1]; 10^−8M concentration): maximal effect
cell structures when mixed with either IGF-1 or PE ([1]; rhNRGβ2 mixed with IGF-1 or PE): improved the cell structures
sarcomeric and cytoskeleton structures, cell-cell adhesions [1]: dramatically improved sarcomeric and cytoskeleton structures, as well as cell-cell adhesions
MHC-α expression under PE stimulation ([1]; with PE): overrode the negative regulation of MHC-α expression
duration of enhanced p21^CIP1 expression (p21^CIP1; 10^−8M): at least 24 hours
p21^CIP1 expression (p21^CIP1; 10^−8M (higher concentration), serum-free or 5% FBS, 24 hrs): increase in p21^CIP1 expression; also recorded: enhanced
expression of sarcomeric myosin heavy chains ([8]; MF20 immunoblot): enhanced expression of sarcomeric myosin heavy chains
sarcomeric actin expression ([8]; immunoblot): remained unchanged
